Results as given in publication PMC8244865, “Recruitment of phospholipase Cγ1 to the non-structural membrane protein pK15 of Kaposi Sarcoma-associated herpesvirus promotes its Src-dependent phosphorylation” (PLoS Pathogens, 2021).

Columns and labels:
Assay type in all cases: binding
PLCγ1 SA = test: GST-pulldown, PLCγ1 SA
Method: Fig 2 K15 phosphorylation results in a stronger binding to PLCγ1. (A) An expression plasmid for an S-tagged full length PLCγ1 or the empty vector (EV) were transfected in HEK-293T cells. After 30h cells were lysed and a GST-pulldown assay was performed with GST-fused pK15 CT (WT), the pK15 CT Y^481F mutant (Y^481F) or GST that had been bound to glutathione beads and previously phosphorylated by GST-6xHis Src (+) or left unphosphorylated (-). Bound proteins were analysed by WB using antibodies to the S tag on PLCγ1 and pTyr. (B) Untransfected HEK-293T cells were lysed and a GST-pulldown assay with pre-phosphorylated (+) or unphosphorylated (-) GST-fused pK15 CT WT/Y^481F or GST was performed and analysed by WB as in (A). (C) An expression plasmid for an S-tagged PLCγ1 SA or the empty vector were transfected in HEK-293T cells. […]
HEK293T cells were washed once with cold PBS 30 hours after transfection, lysed in IP buffer (50 mM Tris pH7.6, 60 mM NaCl, 6.25 mM EDTA, 1% (v/v) glycerol, 0.04% (v/v) NP-40) on ice for 30 minutes, sonicated shortly and cleared by centrifugation for 10 minutes at 20.000g, 4°C. […] Beads were then washed 5 times in 500 μl IP buffer (or for purified proteins IP buffer with 200 mM NaCl), suspended in 10 μl of 5x Laemmli sample buffer (60 mM Tris pH6.8, 24% (v/v) glycerol, 2% (v/v) SDS, 5% (v/v) β-mercaptoethanol, 0.01% Bromphenol Blue) and analysed by western blot.

PLCγ1 cSH2 R^694L = test: AlphaLISA, isolated PLCγ1 cSH2 R694L; conditions: phosphorylated; 300 nM each protein
Method: (§1) Fig 4 The PLCγ1 cSH2 domain is required for the binding of PLCγ1 to phosphorylated pK15 in vitro and may serve as a dominant-negative inhibitor. GST-fused pK15 cytoplasmic tail WT (A), or its truncated mutant N2 [51] (B), were phosphorylated in vitro by 2xStrep-Src and an AlphaLISA was performed with the indicated His-tagged fragments of PLCγ1. Mean and standard deviation from at least two independent experiments with two technical replicates each are depicted. GST fusion proteins of the N1 (C) or N2 (D) truncation mutants of the pK15 cytoplasmic tail were phosphorylated in vitro by 2xStrep-Src and their interaction with recombinant purified PLCγ1 tSH2 (tandem SH2) or SA (γ-specific array) domains was measured by AlphaLISA in the presence of increasing concentrations (300 nM, 600 nM, 900 nM, 1200 nM) of the purified PLCγ1 cSH2. […] After 48h lysates were collected and analysed by Western blot using an antibody to PLCγ1 pY^783 to assess the level of PLCγ1 phosphorylation. (F) The intensities of the pPLCγ1 bands shown in panel E were quantified by densitometry, normalized to the values obtained with the empty vector (EV) in the presence of pK15, and plotted as relative values. […]
(§2) His-tagged PLCγ1 (SA, tSH2 or the isolated SH2 domains) was incubated at room temperature with GST-tagged K15P or its mutants for 1 hour. […] Emission at 615 nm was detected on BioTek Synergy 2 plate reader.

[1] = system: PLCγ1 R^586L and R^694L double mutant (DM) (SA and tSH2); test: AlphaLISA, SA and tSH2 double mutant; conditions: phosphorylated; 300 nM each protein
Method: as §1, §2

B1: pK15 CT^WT: pK15 cytoplasmic tail fused to GST at its N-terminal end, phosphorylated in vitro by Src (protein)
chain: SQLLNEVELQEVNRDPPNVFGYASILVSGAEESREPSPQPDQSGMSILRVDGGSAFRIDTAQAATQPTDDLYEEVLFPRN
modifications: tyrosine-phosphorylated in vitro by Src; sites not stated for this construct; left off: GST, N-terminal, kept
In the case of B1, the “interaction with PLCγ1 SA (GST-pulldown)” value (PLCγ1 SA; in vitro phosphorylated by Src, transfected SA in HEK 293, Western blot) is reported as “bound more strongly to the SA region than the phosphorylated pK15 CT^Y481F mutant”, the “interaction with PLCγ1 SA, unphosphorylated (GST-pulldown)” value (PLCγ1 SA; without prior in vitro phosphorylation by Src kinase) is reported as “marginal binding to PLCγ1 SA” and the “interaction (AlphaLISA)” value (PLCγ1 cSH2 R^694L) is reported as “abolished”. The “interaction (AlphaLISA)” value [1] was “failed to interact”.
